We go through three proteins from patent US20080009025.

Residue numbers refer to the chain shown, from its start. Names and notes keep the numbering of the source.

In one series the target is T1, D978A-PIFtide.
T1 chain: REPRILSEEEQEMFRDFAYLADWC

Series [1] concerns the target GST-PKBα (full length), P31749.
Series [2] addresses GST-PKBα[F472A] (full length), P31749.
Series [3] deals with GST-PKBα[S473D] (full length), P31749.
In series [4] the target is GST-SGK1 (lacking the N-terminal 60 amino acids), O00141.
For series [5], the target named is GST-SGK1[T422D] (lacking the N-terminal 60 amino acids), O00141.
In series [6] the target is GST-ΔPH-PKBα[S473D], P31749.
In series [7] the target is His-412E-p70 S6K-T2, P23443.
The target of series [8] is His-p70 S6K-T2 (p70 S6K with N-terminal His tag lacking the carboxy terminal 104 residues), P23443.
Substrate in series [9]: PIF peptide with Asp978 changed to phosphoserine
Series [10] has as its target T2, PIFtide (24 residue synthetic peptide encompassing the PDK1 binding site on PIF).
T2 chain: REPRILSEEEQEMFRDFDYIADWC

Series [11] addresses PDKtide (39 amino acid polypeptide, T308tide fused to PIFtide).
The target of the next series is T3, T308tide.
T3 chain: KTFCGTPEYLAPEV

Chain of GST-SGK1[T422D] (lacking the N-terminal 60 amino acids), O00141 (O00141 whole entry, looked up, stated change not applied): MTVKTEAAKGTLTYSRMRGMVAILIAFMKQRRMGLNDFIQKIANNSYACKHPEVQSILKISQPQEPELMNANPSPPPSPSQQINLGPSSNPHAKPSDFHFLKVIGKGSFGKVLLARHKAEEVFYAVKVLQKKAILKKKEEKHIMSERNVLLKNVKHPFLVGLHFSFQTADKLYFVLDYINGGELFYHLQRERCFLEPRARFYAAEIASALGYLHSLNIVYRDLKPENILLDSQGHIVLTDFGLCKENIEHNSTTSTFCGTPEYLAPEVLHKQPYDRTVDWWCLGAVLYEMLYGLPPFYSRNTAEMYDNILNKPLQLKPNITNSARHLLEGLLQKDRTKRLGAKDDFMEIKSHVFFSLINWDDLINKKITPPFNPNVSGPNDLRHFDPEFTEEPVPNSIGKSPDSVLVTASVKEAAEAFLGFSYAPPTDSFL
Chain of GST-SGK1 (lacking the N-terminal 60 amino acids), O00141 (O00141 whole entry, looked up): as the sequence (O00141 whole entry, looked up, stated change not applied) above
Chain of GST-PKBα (full length), P31749 (P31749 whole entry, looked up): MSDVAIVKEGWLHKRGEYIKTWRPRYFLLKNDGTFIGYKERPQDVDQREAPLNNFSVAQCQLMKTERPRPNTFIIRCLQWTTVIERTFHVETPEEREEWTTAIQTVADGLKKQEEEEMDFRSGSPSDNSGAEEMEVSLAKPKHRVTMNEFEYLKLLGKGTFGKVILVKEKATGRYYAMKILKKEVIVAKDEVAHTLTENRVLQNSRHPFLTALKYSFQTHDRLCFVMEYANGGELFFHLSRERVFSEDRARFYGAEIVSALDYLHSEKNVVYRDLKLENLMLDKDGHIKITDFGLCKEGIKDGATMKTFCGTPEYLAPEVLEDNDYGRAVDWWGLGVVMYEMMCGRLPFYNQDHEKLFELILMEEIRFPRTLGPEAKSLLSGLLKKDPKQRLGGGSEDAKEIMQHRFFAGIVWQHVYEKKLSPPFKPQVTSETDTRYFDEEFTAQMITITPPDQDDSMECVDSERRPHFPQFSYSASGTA
Chain of GST-ΔPH-PKBα, P31749 (P31749 whole entry, looked up, stated change not applied): as the sequence (P31749 whole entry, looked up) above
Chain of GST-ΔPH-PKBα[S473D], P31749 (P31749 whole entry S473D, looked up): as the sequence (P31749 whole entry, looked up) above, with S473D counted along it
Chain of GST-PKBα[S473D] (full length), P31749 (P31749 whole entry S473D, looked up): as the sequence (P31749 whole entry, looked up) above, with S473D counted along it
Chain of His-p70 S6K-T2 (p70 S6K with N-terminal His tag lacking the carboxy terminal 104 residues), P23443 (P23443 whole entry, looked up): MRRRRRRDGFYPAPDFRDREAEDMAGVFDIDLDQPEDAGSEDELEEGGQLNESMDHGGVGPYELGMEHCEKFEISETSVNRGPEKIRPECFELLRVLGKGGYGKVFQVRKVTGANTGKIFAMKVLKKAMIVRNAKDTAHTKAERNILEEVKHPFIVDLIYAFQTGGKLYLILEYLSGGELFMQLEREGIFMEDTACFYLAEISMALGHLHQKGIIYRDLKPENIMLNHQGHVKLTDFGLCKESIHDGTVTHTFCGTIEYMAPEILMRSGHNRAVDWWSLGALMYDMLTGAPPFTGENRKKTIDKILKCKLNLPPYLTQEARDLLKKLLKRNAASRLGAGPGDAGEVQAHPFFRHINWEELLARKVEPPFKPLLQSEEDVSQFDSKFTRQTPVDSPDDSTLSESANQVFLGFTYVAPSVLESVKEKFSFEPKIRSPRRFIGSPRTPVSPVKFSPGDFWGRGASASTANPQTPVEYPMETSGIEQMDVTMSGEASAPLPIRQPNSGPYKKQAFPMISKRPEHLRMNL
Chain of His-412E-p70 S6K-T2, P23443 (P23443 whole entry, looked up): as above
Chain of GST-PKBα[F472A] (full length), P31749 (P31749 whole entry F472A, looked up): as the sequence (P31749 whole entry, looked up) above, with F472A counted along it

B1: GST-PDK1 wild type (full length PDK1, residues 1-556, N-terminal GST) (protein)
chain: MARTTSQLYDAVPIQSSVVLCSCPSPSMVRTQTESSTPPGIPGGSRQGPAMDGTAAEPRPGAGSLQHAQPPPQPRKKRPEDFKFGKILGEGSFSTVVLARELATSREYAIKILEKRHIIKENKVPYVTRERDVMSRLDHPFFVKLYFTFQDDEKLYFGLSYAKNGELLKYIRKIGSFDETCTRFYTAEIVSALEYLHGKGIIHRDLKPENILLNEDMHIQITDFGTAKVLSPESKQARANSFVGTAQYVSPELLTEKSACKSSDLWALGCIIYQLVAGLPPFRAGNEYLIFQKIIKLEYDFPEKFFPKARDLVEKLLVLDATKRLGCEEMEGYGPLKAHPFFESVTWENLHQQTPPKLTAYLPAMSEDDEDCYGNYDNLLSQFGCMQVSSSSSSHSLSASDTGLPQRSGSNIEQYIHDLDSNSFELDLQFSEDEKRLLLEKQAGGNPWHQFVENNLILKMGPVDKRKGLFARRRQLLLTEGPHLYYVDPVNKVLKGEIPWSQELRPEAKNFKTFFVHTPNRTYYLMDPSGNAHKWCRKIQEVWRQRYQSHPDAAVQ
In the case of B1, the “phosphorylation of GST-p70 S6K-T2 by GST-PDK1 in vitro (32P autoradiography), 4 µM peptide” value is listed as “poorly inhibited the phosphorylation of GST-p70 S6K-T2 by PDK1 slightly” in the series with D978A-PIFtide and “prevented PDK1 from phosphorylating GST-p70 S6K-T2” in [9]. For the same protein, in the series with GST-D978A-PIF, the “phosphorylation of GST-p70 S6K-T2 by GST-PDK1 in vitro (32P autoradiography), 1.5 µM” value is “poorly inhibited the phosphorylation of GST-p70 S6K-T2 by PDK1 slightly”. In addition, the relative phosphorylation of the substrate by PDK1 in vitro (PKB[S473D] = 100), +PIFtide in [1] came out at 19.3 relative; in [3], 85.4 relative; in [4] it was 3.8 relative; in series [5], 9.6 relative; in the series with GST-ΔPH-PKBα, P31749, 0.25 relative; in [6], 0.2 relative. The relative phosphorylation of the substrate by PDK1 in vitro (PKB[S473D] = 100), +PIFtide was 7.4 relative in [7] and 0.58 relative in series [8]. For the same protein, the relative phosphorylation of the substrate by PDK1 in vitro (PKB[S473D] = 100), no PIFtide in series [1] is 28 relative; in [4], 8 relative; in series [5], 71 relative; in the series with GST-ΔPH-PKBα, P31749 it was 0.4 relative; in series [6], 0.9 relative; in [7], 54 relative. Also, in [2], the “rate of phosphorylation by PDK1 in vitro, against the wild type enzyme” value was “PKB[F472A] was phosphorylated at a similar rate to the wild type PKB”. Besides, the relative phosphorylation of the substrate by PDK1 in vitro (this value taken as 100; 2.6 mol/mol PDK1/min), no PIFtide in series [3] came to 100 relative. Besides, the relative phosphorylation of the substrate by PDK1 in vitro (32P, SDS-PAGE, PhosphoImager; PKB[S473D] with PtdIns(3,4,5)P3 = 100), no PIFtide in series [8] was determined as 10.4 relative. In addition, the “phosphorylation of GST-p70 S6K-T2 (wt and 252A) at Thr412 by wt-GST-PDK1, T412-P immunoblot” value in series [10] is “band in every lane without PIF peptide, no band in the neighbouring lane with PIF peptide (4 µM), for PDK1 from 293 cells and from E. coli”. For the same protein, the “phosphorylation of GST-p70 S6K-T2 at Thr412 by GST-PDK1 (T412-P immunoblot), 4 µM peptide” value in [10] is recorded as “The 24 residue PIF peptide prevented PDK1 from phosphorylating the p70 S6K at Thr412”.

B2: GST-PDK1[L155E] (protein)
chain: B1 chain with L155E
For the protein B2, the relative phosphorylation of the substrate by PDK1-L155E in vitro (PKB[S473D] with wild type PDK1 = 100), +PIFtide in series [1] amounted to 35 relative; in series [3], 162 relative; in series [4] it was 2.4 relative; in [5] it was 3.4 relative; with GST-ΔPH-PKBα, P31749, 0.25 relative; in series [6], 0.15 relative. Besides, the relative phosphorylation of the substrate by PDK1-L155E in vitro (PKB[S473D] with wild type PDK1 = 100), +PIFtide was determined as 0.108 relative in series [7] and 0.27 relative in [8]. In addition, the relative phosphorylation of the substrate by PDK1-L155E in vitro (PKB[S473D] with wild type PDK1 = 100), no PIFtide turned out to be 35 relative in [1]; 178 relative in series [3]; 3.3 relative in series [4]; 3.5 relative in series [5]; 0.23 relative with GST-ΔPH-PKBα, P31749; 0.18 relative in series [6]. Besides, the relative phosphorylation of the substrate by PDK1-L155E in vitro (PKB[S473D] with wild type PDK1 = 100), no PIFtide in series [7] is 0.5 relative; in series [8], 0.6 relative.

B3: His-PDK1 (PDK1 residues 52-556 with an N-terminal hexahistidine tag) (protein)
chain: HHHHHHDGTAAEPRPGAGSLQHAQPPPQPRKKRPEDFKFGKILGEGSFSTVVLARELATSREYAIKILEKRHIIKENKVPYVTRERDVMSRLDHPFFVKLYFTFQDDEKLYFGLSYAKNGELLKYIRKIGSFDETCTRFYTAEIVSALEYLHGKGIIHRDLKPENILLNEDMHIQITDFGTAKVLSPESKQARANSFVGTAQYVSPELLTEKSACKSSDLWALGCIIYQLVAGLPPFRAGNEYLIFQKIIKLEYDFPEKFFPKARDLVEKLLVLDATKRLGCEEMEGYGPLKAHPFFESVTWENLHQQTPPKLTAYLPAMSEDDEDCYGNYDNLLSQFGCMQVSSSSSSHSLSASDTGLPQRSGSNIEQYIHDLDSNSFELDLQFSEDEKRLLLEKQAGGNPWHQFVENNLILKMGPVDKRKGLFARRRQLLLTEGPHLYYVDPVNKVLKGEIPWSQELRPEAKNFKTFFVHTPNRTYYLMDPSGNAHKWCRKIQEVWRQRYQSHPDAAVQ
Turning to B3, the “rate of phosphorylation at 100 µM, against T308tide” value in series [11] was “PDKtide was phosphorylated at a rate over 100-fold greater than that using T308tide”. For the same protein, the “Km of PDK1 for the peptide substrate” value with T308tide was “compared to >10 mM for T308tide”.
